Experimental data: patent US20260248897

What was measured:
[1] = system: RBD of SARS-CoV-2 Omicron strain B.1.1.529, BA1, on infectious virus
[2] = system: RBD of SARS-CoV-2 Omicron strain
[3] = system: RBD of SARS-CoV-2 Delta strain
[4] = system: RBD of SARS-CoV-2 Delta strain B.1.617.2, on infectious virus

## gene recombinant of human PDI (protein disulfide isomerase)
[1]
  antiviral activity (viral genome amount in supernatant of infected airway organoids): PDI showed the high antiviral activity against both the Delta strain and the Omicron strain.
[2]
  disulfide bond cleavage activity (remaining rate of native RBD; maleimide-PEG 2k, SDS-PAGE): PDI showed an activity to cleave disulfide bonds in both the RBD of the Delta strain and the RBD of the Omicron strain. The disulfide bond cleavage activity was particularly high in the RBD of the Omicron strain.
[3]
  disulfide bond cleavage activity (remaining rate of native RBD; maleimide-PEG 2k, SDS-PAGE): PDI showed an activity to cleave disulfide bonds in both the RBD of the Delta strain and the RBD of the Omicron strain.
[4]
  antiviral activity (viral genome amount in supernatant of infected airway organoids): PDI showed the high antiviral activity against both the Delta strain and the Omicron strain.
